We go through eleven sequences from the Immune Epitope Database (IEDB).

pKd: −log10 of the molar value.

Assay [1] has as its target HLA-A*02:01. In words: IEDB peptide-MHC binding, purified MHC/competitive/fluorescence; filed as Kd, often an IC50 or EC50 that approximates it; ≥ and ≤ were set here for values at or beyond the usual limits of such assays.
The target of assay [2] is HLA-A*02:03. The assay is described as above.
Assay [3] deals with HLA-A*02:11. The assay is described as above.
Assay [4] has as its target HLA-A*02:12. Described as above.
For assay [5], the target named is HLA-A*02:16. Described as above.
Assay [6] concerns the target HLA-A*02:19. The description is as above.
For assay [7], the target named is HLA-A*03:01. Described as above.
The target in assay [8] is HLA-A*23:01. Described as above.
Assay [9] deals with HLA-A*24:03. The assay is described as above.
In assay [10] the target is HLA-A*26:01. Described as above.
For assay [11], the target named is HLA-A*29:02. The assay is described as above.
Assay [12] addresses HLA-A*68:02. The assay is described as above.
For assay [13], the target named is HLA-A*69:01. Described as above.
The target in assay [14] is HLA-B*15:01. The description is as above.
Assay [15] concerns the target HLA-B*15:17. Described as above. Conditions: source organism: Giardia lamblia ATCC 50803.
In assay [16] the target is HLA-B*18:01. The description is as above.
Assay [17] deals with HLA-B*27:03. Described as above.
Assay [18] concerns the target HLA-B*39:01. Described as above.
Assay [19] concerns the target HLA-B*46:01. The description is as above.
In assay [20] the target is HLA-B*51:01. Described as above.
The target in assay [21] is HLA-B*57:01. The assay is described as above.
In assay [22] the target is HLA-B*35:01. The description is as above.
For assay [23], the target named is HLA-A*01:01. In words: IEDB peptide-MHC binding, purified MHC/direct/fluorescence; filed as Kd, often an IC50 or EC50 that approximates it; ≥ and ≤ were set here for values at or beyond the usual limits of such assays.
Assay [24] deals with HLA-A*26:01. The description is as above.
The target in assay [25] is HLA-B*27:05. In words: IEDB peptide-MHC binding, purified MHC/competitive/fluorescence; filed as Kd, often an IC50 or EC50 that approximates it; ≥ and ≤ were set here for values at or beyond the usual limits of such assays.
Assay [26] has as its target HLA-C*03:03. In words: IEDB peptide-MHC binding, purified MHC/direct/fluorescence; filed as Kd, often an IC50 or EC50 that approximates it; ≥ and ≤ were set here for values at or beyond the usual limits of such assays. Conditions: source organism: Bacillus anthracis str. A0488.
Assay [27] has as its target HLA-B*58:01. In words: IEDB peptide-MHC binding, purified MHC/competitive/fluorescence; filed as Kd, often an IC50 or EC50 that approximates it; ≥ and ≤ were set here for values at or beyond the usual limits of such assays.
For assay [28], the target named is HLA-A*02:03. In words: IEDB peptide-MHC binding, purified MHC/direct/fluorescence; filed as Kd, often an IC50 or EC50 that approximates it; ≥ and ≤ were set here for values at or beyond the usual limits of such assays. Conditions: source organism: Ravn virus - Ravn, Kenya, 1987.
Assay [29] addresses HLA-A*02:11. The assay is described as above. Particulars: source organism: Ravn virus - Ravn, Kenya, 1987.
Assay [30] has as its target HLA-A*02:12. The assay is described as above. Conditions: source organism: Ravn virus - Ravn, Kenya, 1987.
Assay [31] deals with HLA-A*02:16. The description is as above. Particulars: source organism: Ravn virus - Ravn, Kenya, 1987.
The target in assay [32] is HLA-A*02:19. The assay is described as above. Conditions: source organism: Ravn virus - Ravn, Kenya, 1987.
Assay [33] addresses HLA-A*03:01. The description is as above. Conditions: source organism: Ravn virus - Ravn, Kenya, 1987.
Assay [34] concerns the target HLA-A*24:03. The description is as above. Conditions: source organism: Ravn virus - Ravn, Kenya, 1987.
The target of assay [35] is HLA-A*68:02. The assay is described as above. Particulars: source organism: Ravn virus - Ravn, Kenya, 1987.
For assay [36], the target named is HLA-C*14:02. The assay is described as above. Conditions: source organism: Mycobacterium tuberculosis H37Rv.
Assay [37] deals with HLA-C*15:02. The description is as above. Particulars: source organism: Mycobacterium tuberculosis H37Rv.
The mark [38] stands for this setting: source organism: Giardia lamblia ATCC 50803.
Where [39] appears, read: source organism: Bacillus anthracis str. A2012.
Setting [40] is: source organism: Mycobacterium tuberculosis variant bovis BCG str. Pasteur 1173P2.
The mark [41] stands for this setting: source organism: Salmonella enterica subsp. enterica serovar Typhi str. CT18.
[42] abbreviates: source organism: Escherichia coli 536.
The mark [43] stands for this setting: source organism: Sudan ebolavirus - Maleo (1979).
[44] abbreviates: source organism: Zaire ebolavirus.
Setting [45] is: source organism: Mycobacterium tuberculosis H37Rv.

Turning to DEYGPVFVE, the negative logarithm of the Kd (pKd) in assay [1] (setting [38]), in [2] (setting [38]), in assay [3] (setting [38]), in assay [4] (setting [38]), in [5] (setting [38]) and in assay [6] (setting [38]) was no more than 4.70 in each case. Moreover, the negative-log Kd (pKd) in assay [7] (setting [38]), in assay [8] (setting [38]), in assay [9] (setting [38]), in assay [10] (setting [38]), in [11] (setting [38]) and in assay [12] (setting [38]) was no more than 4.70 in each case. Moreover, the pKd (as a rule, −log10 of the Kd, conventionally taken in molar units) in [13] (setting [38]) was no more than 4.70; in assay [14] (setting [38]), no more than 4.70; in assay [15], no more than 4.70; in [16] (setting [38]) it was 7.06; in assay [17] (setting [38]) it was no more than 4.70; in assay [18] (setting [38]), no more than 4.70. Further, the pKd in assay [19] (setting [38]), in assay [20] (setting [38]) and in [21] (setting [38]) was no more than 4.70 throughout.

Take FVAAGAFHM: the pKd is 6.56 in [10] (setting [39]) and 8.43 in assay [22] (setting [39]).

With FVARIDLGY, the pKd was 6.22 in [23] (setting [40]), 7.70 in assay [24] (setting [40]) and 7.85 in assay [22] (source organism: Mycobacterium tuberculosis C).

The sequence GRITVSTKR gave a negative-log Kd (pKd) in [25] (source organism: Influenza A virus (A/CHU/2-524/2005(H3N2))) of 6.50.

In the case of ITLPISASL, the values for the pKd in [26] and in [27] (source organism: Bacillus anthracis str. A0488) were no less than 9.00 and 6.94, respectively.

As to KSKPRIHGY, the pKd in assay [1] (setting [41]), in assay [2] (setting [41]), in assay [3] (setting [41]), in assay [4] (setting [41]), in assay [5] (setting [41]) and in assay [6] (setting [41]) was no more than 4.70 each time. For the same sequence, the pKd in [7] (setting [41]), in assay [8] (setting [41]), in [9] (setting [41]), in assay [10] (setting [41]), in assay [11] (setting [41]) and in [12] (setting [41]) was no more than 4.70 in each case. In addition, the pKd in assay [13] (setting [41]), in [16] (setting [41]), in assay [17] (setting [41]), in [18] (setting [41]), in assay [19] (setting [41]) and in [20] (setting [41]) was no more than 4.70 in each case. Further, the pKd in assay [21] (setting [41]) was 6.77.

Take KTNRTGLLM: in [27] (source organism: Bacillus cereus G9241), the negative-log Kd (pKd) was 7.04.

Consider QMLPGYFRF, for which the pKd was 9.70 in assay [9] (setting [42]), 6.65 in assay [14] (setting [42]) and 7.34 in assay [27] (setting [42]).

VRFANELSF showed a pKd in assay [25] (source organism: Bacillus cereus H3081.97) of 7.00.

In the case of YSGNIVHRY, the pKd in [23] (setting [43]) is 7.05; in assay [28], no more than 4.70; in assay [29], no more than 4.70; in [30] it was no more than 4.70; in [31] it was no more than 4.70; in [32], no more than 4.70. Further, the negative-log Kd (pKd) is no more than 4.70 in assay [33]; no more than 4.70 in assay [34]; 5.81 in assay [24] (setting [43]); no more than 4.70 in [35]; no more than 4.70 in [1] (setting [44]); no more than 4.70 in assay [13] (setting [44]). Besides, the pKd in assay [17] (setting [44]) was no more than 4.70; in assay [18] (setting [44]) it was no more than 4.70; in [19] (setting [44]) it was no more than 4.70; in assay [20] (setting [44]), no more than 4.70; in [27] (setting [44]) it was 7.19.

Turning to YVRTNGASY, the pKd is 7.59 in [24] (source organism: Mycobacterium tuberculosis); 6.45 in assay [36]; no more than 4.70 in assay [37]; 7.19 in assay [22] (setting [45]); 5.65 in assay [19] (setting [45]).
